Consider two molecules from patent US20200255503A1 (Regeneron, published 2020).

Experiment [1] addresses T1, Fel d1 (B-A)-mmH (cat (Felis domesticus)).
T1 construct: Expressed in CHO cells; also called rFel d1.mmH; rFel d1-mmH
Put plainly: SPR, mAb captured, Fel d1 (B-A)-mmH injected, 25 C.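 Also: rate constants obtained by fitting sensorgrams to a one-to-one binding model, Kd computed as koff over kon, half-life derived from koff.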
Description: Antibody-antigen association was monitored for 3 to 5 minutes, and the dissociation of antigen from the captured monoclonal antibody (in running buffer alone at 25° C.) was monitored for 10 or 15 minutes. Kinetic association (kₐ) and dissociation (kₐ) rate constants were determined by processing and fitting the data to a 1:1 binding model using Scrubber 2.0 curve fitting software. Binding dissociation equilibrium constants (KD) and dissociative half-lives (t_{1/2}) were calculated from the kinetic rate constants as: KD=kd/kₐ and t_{1/2}=ln(2)/kₐ.

Experiment [2] has as its target T1, Fel d1 (B-A)-mmH. Put plainly: SPR Biacore T200, mAb captured by anti-human Fc, antigen injected.
Excerpt: (§1) The binding kinetic parameters were obtained by globally fitting the double reference subtracted data to a 1:1 binding model with mass transport limitation using Biacore T200 Evaluation Software, version 1.0.
Another experiment has as its target rFel d1.mFc (dimeric) (cat (Felis domesticus)). The experiment is described as above.

T1 sequence (chain, as listed by the source limits assumed): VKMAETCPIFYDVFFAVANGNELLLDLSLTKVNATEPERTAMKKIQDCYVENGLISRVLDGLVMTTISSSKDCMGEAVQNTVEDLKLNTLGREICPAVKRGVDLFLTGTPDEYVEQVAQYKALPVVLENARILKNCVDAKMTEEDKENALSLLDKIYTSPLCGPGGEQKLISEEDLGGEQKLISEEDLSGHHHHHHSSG
Chain of rFel d1.mFc (dimeric) (cat (Felis domesticus)) (chain, as listed by the source limits assumed): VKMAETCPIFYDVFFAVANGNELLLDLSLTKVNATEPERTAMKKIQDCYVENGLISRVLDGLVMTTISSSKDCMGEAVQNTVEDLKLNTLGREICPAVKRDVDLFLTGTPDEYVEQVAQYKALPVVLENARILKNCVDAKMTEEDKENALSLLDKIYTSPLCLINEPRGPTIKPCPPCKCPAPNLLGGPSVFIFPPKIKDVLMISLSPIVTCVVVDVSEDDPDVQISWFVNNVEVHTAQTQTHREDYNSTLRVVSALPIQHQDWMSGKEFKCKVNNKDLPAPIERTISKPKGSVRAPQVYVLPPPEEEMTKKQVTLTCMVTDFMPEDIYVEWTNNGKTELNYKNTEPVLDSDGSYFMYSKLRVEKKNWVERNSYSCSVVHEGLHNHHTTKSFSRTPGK
Excerpt for rFel d1.mFc (dimeric): as §1

B1: H4H1232N (antibody, human IgG4, V domains shown)
VH: EVQLVESGGGLVKPGGSLRLSCAASGFTFRNYNINWVRQAPGKGLEWVSLISGSSSYIYYADSVKGRFTVSRDNAKNSLYLQMNSLRAEDTAVYYCARRTLSYYVMDVWGQGTTVTVSS
VL: DIQVTQSPSPLSASVGDRVTITCRASQGISNYLAWYQQKPGRVPQLLIYAASTLQSGVPSRFSGSGSGTDFTLTISSLQPEDVATYYCQKYNSAPYTFGQGTKLEIK
notes: human IgG4 Fc (prefix H4H); also called REGN1908
What is called Kd is the equilibrium constant for the complex coming apart. Low readings indicate higher affinity, high ones lower affinity. In general, koff refers to the rate constant with which the complex falls apart. A high value points to a short-lived complex. As usually defined, the kon is a measure of how fast the partners come together. In the experiment with Fel d1 (B-A)-mmH [1], B1 returned a Kd of 0.144 nM, an off-rate (koff) of 0.000258 s⁻¹, a kon of 1.79e+06 M⁻¹ s⁻¹ and a t1/2 of 45 min. For the same molecule, in the experiment with Fel d1 (B-A)-mmH [2], the Kd came out at 0.187 nM, the T1/2 amounted to 46 min, the koff is 0.000251 s⁻¹ and the kon is 1.34e+06 M⁻¹ s⁻¹. In the experiment with rFel d1.mFc (dimeric), the Kd turned out to be 0.0316 nM, the T1/2 came to 159 min, the koff was 7.25e-05 s⁻¹ and the kon stood at 2.3e+06 M⁻¹ s⁻¹.

B2: H4H2636P (antibody, human IgG4, V domains shown)
VH: EVQLVESGGGLVQPGGSLRLSCAASGFTFSSYAMSWVRQAPGKGLEWVSAISGRGYNADYADSVKGRFTISRDNSKNTLYLQMNSLRAEDTAVYYCAKLEYFDYWGQGTLVTVSS
VL: DIQMTQSPSTLSASVGDRVTITCRASQSISSWLAWYQQKPGKAPKLLIYKASSLESGVPSRFSGSGSGTDFTLTISSLRPEDFATYYCQQYNSYPLTFGGGTKVEIK
notes: human IgG4 Fc (prefix H4H); also called REGN1909
In the experiment with Fel d1 (B-A)-mmH [1], B2 came in with a Kd of 0.912 nM, an off-rate (koff) of 0.000235 s⁻¹, a kon of 257000 M⁻¹ s⁻¹ and a t1/2 of 49 min. In the experiment with Fel d1 (B-A)-mmH [2], this molecule returned a Kd of 0.912 nM, a T1/2 of 49 min, a koff of 0.000235 s⁻¹ and a kon of 257000 M⁻¹ s⁻¹. Also, in the experiment with rFel d1.mFc (dimeric), the affinity, expressed as Kd, was 0.0978 nM; the T1/2 stood at 254 min; the koff amounted to 4.55e-05 s⁻¹; the kon came out at 466000 M⁻¹ s⁻¹.
